Reference: patent US20180155451A1 (published 2018)

B1: GpH7-B3 variant S337_04F/GpL16-k0 (antibody, human IgG1, kappa)
heavy: not shown
light: DIVMTQSPLSLPVTPGEPASISCQASESLVHSNRNTYLHWYLQKPGQSPQLLIYKVSNRFSGVPDRFSGSGSGTDFTLKISRVEAEDVGVYYCSQNTHVPPTFGQGTKVEIERTVAAPSVFIFPPSDEQLKSGTASVVCLLNNFYPREAKVQWKVDNALQSGNSQESVTEQDSKDSTYSLSSTLTLSKADYEKHKVYACEVTHQGLSSPVTKSFNRGEC
notes: also called Ho Ab S337_04F
B2: GpH7-B3 variant A330_05P/GpL16-k0 (antibody, human IgG1, kappa)
heavy: not shown
light: B1 light
notes: also called Ho Ab A330_05P
B3: GpH7-B3 variant A330_07I/GpL16-k0 (antibody, human IgG1, kappa)
heavy: not shown
light: B1 light
notes: also called Ho Ab A330_07I
B4: GpH7-B3 variant E333_02A/GpL16-k0 (antibody, human IgG1, kappa)
heavy: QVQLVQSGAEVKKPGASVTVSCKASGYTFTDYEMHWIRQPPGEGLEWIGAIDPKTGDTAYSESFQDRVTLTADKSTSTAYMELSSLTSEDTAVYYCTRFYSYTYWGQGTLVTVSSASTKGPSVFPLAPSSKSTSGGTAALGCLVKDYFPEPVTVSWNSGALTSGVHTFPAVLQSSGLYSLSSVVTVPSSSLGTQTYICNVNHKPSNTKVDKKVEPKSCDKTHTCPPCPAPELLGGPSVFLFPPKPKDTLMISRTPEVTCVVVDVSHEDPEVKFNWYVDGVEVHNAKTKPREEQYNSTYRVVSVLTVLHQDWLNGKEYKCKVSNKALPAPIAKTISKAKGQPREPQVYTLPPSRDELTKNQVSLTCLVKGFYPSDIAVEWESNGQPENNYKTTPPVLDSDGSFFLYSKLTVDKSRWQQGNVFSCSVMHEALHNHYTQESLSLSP
light: B1 light
notes: also called Ho Ab E333_02A
B5: GpH7-B3 variant E333_03V/GpL16-k0 (antibody, human IgG1, kappa)
heavy: not shown
light: B1 light
notes: also called Ho Ab E333_03V
B6: GpH7-B3 variant E333_04F/GpL16-k0 (antibody, human IgG1, kappa)
heavy: not shown
light: B1 light
notes: also called Ho Ab E333_04F
B7: GpH7-B3 variant E333_09D/GpL16-k0 (antibody, human IgG1, kappa)
heavy: not shown
light: B1 light
notes: also called Ho Ab E333_09D
B8: GpH7-B3 variant E333_13S/GpL16-k0 (antibody, human IgG1, kappa)
heavy: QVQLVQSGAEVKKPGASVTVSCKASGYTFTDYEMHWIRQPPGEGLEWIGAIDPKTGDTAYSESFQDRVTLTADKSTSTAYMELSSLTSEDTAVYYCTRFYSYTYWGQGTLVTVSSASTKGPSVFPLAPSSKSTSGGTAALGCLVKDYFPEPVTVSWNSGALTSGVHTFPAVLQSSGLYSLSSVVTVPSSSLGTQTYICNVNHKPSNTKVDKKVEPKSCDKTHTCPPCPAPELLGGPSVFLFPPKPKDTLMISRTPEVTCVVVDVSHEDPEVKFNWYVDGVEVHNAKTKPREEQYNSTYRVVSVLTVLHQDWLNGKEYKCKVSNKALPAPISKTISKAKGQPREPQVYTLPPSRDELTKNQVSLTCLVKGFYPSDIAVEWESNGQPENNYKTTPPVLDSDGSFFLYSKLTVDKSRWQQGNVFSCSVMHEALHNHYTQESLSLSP
light: B1 light
notes: also called Ho Ab E333_13S
B9: GpH7-B3 variant E333_20W/GpL16-k0 (antibody, human IgG1, kappa)
heavy: not shown
light: B1 light
notes: also called Ho Ab E333_20W
B10: GpH7-B3 variant G236_15Y/GpL16-k0 (antibody, human IgG1, kappa)
heavy: not shown
light: B1 light
notes: also called Ho Ab G236_15Y
B11: GpH7-B3 variant H268_02A/GpL16-k0 (antibody, human IgG1, kappa)
heavy: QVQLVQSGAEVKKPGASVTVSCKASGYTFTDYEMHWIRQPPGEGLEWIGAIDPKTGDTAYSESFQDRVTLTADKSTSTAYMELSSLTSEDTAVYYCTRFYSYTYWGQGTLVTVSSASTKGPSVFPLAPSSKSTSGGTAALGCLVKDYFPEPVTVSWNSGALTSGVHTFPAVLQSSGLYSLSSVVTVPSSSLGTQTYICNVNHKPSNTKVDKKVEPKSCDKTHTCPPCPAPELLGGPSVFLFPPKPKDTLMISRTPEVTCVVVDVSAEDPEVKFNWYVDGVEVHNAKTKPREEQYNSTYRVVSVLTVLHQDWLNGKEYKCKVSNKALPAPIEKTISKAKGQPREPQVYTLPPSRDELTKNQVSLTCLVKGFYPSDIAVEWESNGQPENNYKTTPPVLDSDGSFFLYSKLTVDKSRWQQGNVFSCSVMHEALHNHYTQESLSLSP
light: B1 light
notes: also called Ho Ab H268_02A
B12: GpH7-B3 variant H268_18N/GpL16-k0 (antibody, human IgG1, kappa)
heavy: not shown
light: B1 light
notes: also called Ho Ab H268_18N
B13: GpH7-B3 variant I332_01G/GpL16-k0 (antibody, human IgG1, kappa)
heavy: not shown
light: B1 light
notes: also called Ho Ab I332_01G
B14: GpH7-B3 variant I332_06M/GpL16-k0 (antibody, human IgG1, kappa)
heavy: not shown
light: B1 light
notes: also called Ho Ab I332_06M
B15: GpH7-B3 variant I336_02A/GpL16-k0 (antibody, human IgG1, kappa)
heavy: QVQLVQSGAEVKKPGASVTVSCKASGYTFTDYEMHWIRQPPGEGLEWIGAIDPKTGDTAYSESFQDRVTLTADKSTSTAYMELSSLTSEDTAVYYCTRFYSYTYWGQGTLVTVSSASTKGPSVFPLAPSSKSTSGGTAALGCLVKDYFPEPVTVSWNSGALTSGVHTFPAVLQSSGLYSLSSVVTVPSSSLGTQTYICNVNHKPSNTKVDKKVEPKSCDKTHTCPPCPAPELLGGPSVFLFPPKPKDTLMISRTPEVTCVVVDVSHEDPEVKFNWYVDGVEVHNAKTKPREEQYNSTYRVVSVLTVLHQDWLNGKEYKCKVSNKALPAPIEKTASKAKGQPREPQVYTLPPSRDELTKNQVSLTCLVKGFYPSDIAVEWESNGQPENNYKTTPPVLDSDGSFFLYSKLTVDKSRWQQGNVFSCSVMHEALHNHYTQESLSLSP
light: B1 light
notes: also called Ho Ab I336_02A
B16: GpH7-B3 variant I336_03V/GpL16-k0 (antibody, human IgG1, kappa)
heavy: not shown
light: B1 light
notes: also called Ho Ab I336_03V
B17: GpH7-B3 variant I336_06M/GpL16-k0 (antibody, human IgG1, kappa)
heavy: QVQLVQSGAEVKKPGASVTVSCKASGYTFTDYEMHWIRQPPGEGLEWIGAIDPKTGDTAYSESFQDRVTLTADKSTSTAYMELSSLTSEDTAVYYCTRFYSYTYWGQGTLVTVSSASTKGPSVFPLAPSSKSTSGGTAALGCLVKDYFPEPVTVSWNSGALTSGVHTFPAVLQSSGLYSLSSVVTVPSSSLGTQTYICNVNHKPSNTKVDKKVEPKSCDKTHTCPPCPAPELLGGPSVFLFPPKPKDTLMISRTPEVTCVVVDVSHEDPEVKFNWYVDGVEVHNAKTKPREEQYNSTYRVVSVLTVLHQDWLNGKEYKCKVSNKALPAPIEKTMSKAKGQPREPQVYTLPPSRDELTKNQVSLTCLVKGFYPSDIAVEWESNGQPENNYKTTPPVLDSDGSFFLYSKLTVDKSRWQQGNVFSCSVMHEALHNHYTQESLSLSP
light: B1 light
notes: also called Ho Ab I336_06M
B18: GpH7-B3 variant I336_08L/GpL16-k0 (antibody, human IgG1, kappa)
heavy: not shown
light: B1 light
notes: also called Ho Ab I336_08L
B19: GpH7-B3 variant I336_18N/GpL16-k0 (antibody, human IgG1, kappa)
heavy: not shown
light: B1 light
notes: also called Ho Ab I336_18N
B20: GpH7-B3 variant K326_07I/GpL16-k0 (antibody, human IgG1, kappa)
heavy: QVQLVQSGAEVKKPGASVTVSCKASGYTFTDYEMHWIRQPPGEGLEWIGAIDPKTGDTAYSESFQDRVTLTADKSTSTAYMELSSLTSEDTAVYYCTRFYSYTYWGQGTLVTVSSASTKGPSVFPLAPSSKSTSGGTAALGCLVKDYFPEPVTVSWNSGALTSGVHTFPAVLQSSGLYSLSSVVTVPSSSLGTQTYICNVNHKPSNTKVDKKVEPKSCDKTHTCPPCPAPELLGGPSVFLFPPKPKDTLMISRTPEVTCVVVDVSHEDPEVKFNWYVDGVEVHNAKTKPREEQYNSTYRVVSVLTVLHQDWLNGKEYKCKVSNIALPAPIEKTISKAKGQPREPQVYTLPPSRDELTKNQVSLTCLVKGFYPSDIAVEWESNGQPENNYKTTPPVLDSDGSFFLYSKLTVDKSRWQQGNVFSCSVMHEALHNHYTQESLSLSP
light: B1 light
notes: also called Ho Ab K326_07I
B21: GpH7-B3 variant K326_08L/GpL16-k0 (antibody, human IgG1, kappa)
heavy: not shown
light: B1 light
notes: also called Ho Ab K326_08L
B22: GpH7-B3 variant K334_01G/GpL16-k0 (antibody, human IgG1, kappa)
heavy: not shown
light: B1 light
notes: also called Ho Ab K334_01G
B23: GpH7-B3 variant K334_09D/GpL16-k0 (antibody, human IgG1, kappa)
heavy: not shown
light: B1 light
notes: also called Ho Ab K334_09D
B24: GpH7-B3 variant L234_04F/GpL16-k0 (antibody, human IgG1, kappa)
heavy: not shown
light: B1 light
notes: also called Ho Ab L234_04F
B25: GpH7-B3 variant L234_07I/GpL16-k0 (antibody, human IgG1, kappa)
heavy: not shown
light: B1 light
notes: also called Ho Ab L234_07I
B26: GpH7-B3 variant L234_20W/GpL16-k0 (antibody, human IgG1, kappa)
heavy: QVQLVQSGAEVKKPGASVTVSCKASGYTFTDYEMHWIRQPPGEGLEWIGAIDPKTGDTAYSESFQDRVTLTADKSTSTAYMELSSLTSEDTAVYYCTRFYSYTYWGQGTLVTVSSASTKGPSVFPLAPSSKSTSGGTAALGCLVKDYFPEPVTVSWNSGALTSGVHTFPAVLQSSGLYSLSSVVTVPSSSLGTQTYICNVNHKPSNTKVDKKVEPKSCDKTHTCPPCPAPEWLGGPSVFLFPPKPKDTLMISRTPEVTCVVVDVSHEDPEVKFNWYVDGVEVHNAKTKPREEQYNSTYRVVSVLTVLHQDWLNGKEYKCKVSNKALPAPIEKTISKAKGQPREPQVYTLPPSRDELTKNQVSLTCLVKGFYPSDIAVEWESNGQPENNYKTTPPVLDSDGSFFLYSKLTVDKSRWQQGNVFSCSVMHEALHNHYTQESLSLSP
light: B1 light
notes: also called Ho Ab L234_20W
B27: GpH7-B3 variant P238_09D/GpL16-k0 (antibody, human IgG1, kappa)
heavy: not shown
light: B1 light
notes: also called Ho Ab P238_09D
B28: GpH7-B3 variant P238_10E/GpL16-k0 (antibody, human IgG1, kappa)
heavy: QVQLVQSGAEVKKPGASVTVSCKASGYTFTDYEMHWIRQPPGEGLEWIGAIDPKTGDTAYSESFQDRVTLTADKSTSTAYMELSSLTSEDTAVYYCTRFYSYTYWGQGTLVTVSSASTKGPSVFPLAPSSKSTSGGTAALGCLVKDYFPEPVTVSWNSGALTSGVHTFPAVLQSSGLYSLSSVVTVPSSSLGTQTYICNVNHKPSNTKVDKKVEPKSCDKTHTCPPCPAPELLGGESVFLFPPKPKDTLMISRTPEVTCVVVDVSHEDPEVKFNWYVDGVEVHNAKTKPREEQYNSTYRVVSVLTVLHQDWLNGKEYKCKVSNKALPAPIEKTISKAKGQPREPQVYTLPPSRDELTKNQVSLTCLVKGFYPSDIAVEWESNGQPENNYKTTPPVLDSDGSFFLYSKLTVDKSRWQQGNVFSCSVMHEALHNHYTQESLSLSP
light: B1 light
notes: also called Ho Ab P238_10E
B29: GpH7-B3 variant P271_01G/GpL16-k0 (antibody, human IgG1, kappa)
heavy: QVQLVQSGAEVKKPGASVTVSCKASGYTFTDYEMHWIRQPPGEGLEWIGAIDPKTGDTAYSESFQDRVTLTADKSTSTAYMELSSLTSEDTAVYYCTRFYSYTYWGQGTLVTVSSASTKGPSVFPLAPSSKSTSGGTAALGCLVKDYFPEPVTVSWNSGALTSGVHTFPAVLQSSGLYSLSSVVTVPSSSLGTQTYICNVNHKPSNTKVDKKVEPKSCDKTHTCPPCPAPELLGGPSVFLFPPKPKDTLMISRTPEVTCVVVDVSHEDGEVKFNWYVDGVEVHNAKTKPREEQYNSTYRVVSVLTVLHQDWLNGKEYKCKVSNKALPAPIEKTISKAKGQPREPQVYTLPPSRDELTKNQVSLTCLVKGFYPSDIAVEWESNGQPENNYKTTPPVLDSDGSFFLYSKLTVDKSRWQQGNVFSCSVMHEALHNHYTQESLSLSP
light: B1 light
notes: also called Ho Ab P271_01G
B30: GpH7-B3 variant Q295_14T/GpL16-k0 (antibody, human IgG1, kappa)
heavy: not shown
light: B1 light
notes: also called Ho Ab Q295_14T
B31: GpH7-B3 variant S267_02A/GpL16-k0 (antibody, human IgG1, kappa)
heavy: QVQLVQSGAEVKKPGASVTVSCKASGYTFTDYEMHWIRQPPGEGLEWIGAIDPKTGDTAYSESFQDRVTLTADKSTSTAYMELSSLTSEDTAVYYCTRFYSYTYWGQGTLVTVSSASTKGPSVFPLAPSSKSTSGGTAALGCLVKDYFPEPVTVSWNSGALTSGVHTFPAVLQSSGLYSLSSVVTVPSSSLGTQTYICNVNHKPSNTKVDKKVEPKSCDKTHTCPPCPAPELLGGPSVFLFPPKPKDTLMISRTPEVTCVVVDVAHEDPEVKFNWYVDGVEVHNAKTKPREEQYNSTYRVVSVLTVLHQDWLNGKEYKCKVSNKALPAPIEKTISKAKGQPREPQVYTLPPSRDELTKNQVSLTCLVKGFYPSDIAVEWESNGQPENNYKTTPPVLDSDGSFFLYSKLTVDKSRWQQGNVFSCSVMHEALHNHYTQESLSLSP
light: B1 light
notes: also called Ho Ab S267_02A
B32: GpH7-B3 variant S267_09D/GpL16-k0 (antibody, human IgG1, kappa)
heavy: not shown
light: B1 light
notes: also called Ho Ab S267_09D
B33: GpH7-B3 variant S298_14T/GpL16-k0 (antibody, human IgG1, kappa)
heavy: not shown
light: B1 light
notes: also called Ho Ab S298_14T
B34: GpH7-B3 variant S324_02A/GpL16-k0 (antibody, human IgG1, kappa)
heavy: not shown
light: B1 light
notes: also called Ho Ab S324_02A
B35: GpH7-A5/GpH7-B3 variant S239_10E/GpL16-k0 (antibody, human IgG1, kappa)
heavy 1: not shown
heavy 2: not shown
light: B1 light
notes: heterodimerized antibody, mutation in one H chain only; also called S239_10E He Ab
B36: GpH7-A5/GpH7-B3 variant S267_06M/GpL16-k0 (antibody, human IgG1, kappa)
heavy 1: not shown
heavy 2: not shown
light: B1 light
notes: heterodimerized antibody, mutation in one H chain only; also called S267_06M He Ab
B37: GpH7-A5/GpH7-B3 variant S267_10E/GpL16-k0 (antibody, human IgG1, kappa)
heavy 1: not shown
heavy 2: not shown
light: B1 light
notes: heterodimerized antibody, mutation in one H chain only; also called S267_10E He Ab
B38: GpH7-A5/GpH7-B3 variant S267_14T/GpL16-k0 (antibody, human IgG1, kappa)
heavy 1: not shown
heavy 2: not shown
light: B1 light
notes: heterodimerized antibody, mutation in one H chain only; also called S267_14T He Ab
B39: GpH7-A5/GpH7-B3 variant S267_18N/GpL16-k0 (antibody, human IgG1, kappa)
heavy 1: not shown
heavy 2: not shown
light: B1 light
notes: heterodimerized antibody, mutation in one H chain only; also called S267_18N He Ab
B40: GpH7-A5/GpH7-B3 variant S267_19Q/GpL16-k0 (antibody, human IgG1, kappa)
heavy 1: not shown
heavy 2: not shown
light: B1 light
notes: heterodimerized antibody, mutation in one H chain only; also called S267_19Q He Ab
B41: GpH7-A5/GpH7-B3 variant S298_09D/GpL16-k0 (antibody, human IgG1, kappa)
heavy 1: not shown
heavy 2: not shown
light: B1 light
notes: heterodimerized antibody, mutation in one H chain only; also called S298_09D He Ab
B42: GpH7-A5/GpH7-B3 variant S324_09D/GpL16-k0 (antibody, human IgG1, kappa)
heavy 1: not shown
heavy 2: not shown
light: B1 light
notes: heterodimerized antibody, mutation in one H chain only; also called S324_09D He Ab
B43: GpH7-A5/GpH7-B3 variant S324_10E/GpL16-k0 (antibody, human IgG1, kappa)
heavy 1: not shown
heavy 2: not shown
light: B1 light
notes: heterodimerized antibody, mutation in one H chain only; also called S324_10E He Ab
B44: GpH7-A5/GpH7-B3 variant S337_11K/GpL16-k0 (antibody, human IgG1, kappa)
heavy 1: not shown
heavy 2: not shown
light: B1 light
notes: heterodimerized antibody, mutation in one H chain only; also called S337_11K He Ab
B45: GpH7-A5/GpH7-B3 variant S337_14T/GpL16-k0 (antibody, human IgG1, kappa)
heavy 1: not shown
heavy 2: not shown
light: B1 light
notes: heterodimerized antibody, mutation in one H chain only; also called S337_14T He Ab
B46: GpH7-A5/GpH7-B3 variant S337_16H/GpL16-k0 (antibody, human IgG1, kappa)
heavy 1: not shown
heavy 2: not shown
light: B1 light
notes: heterodimerized antibody, mutation in one H chain only; also called S337_16H He Ab
B47: GpH7-A5/GpH7-B3 variant S337_18N/GpL16-k0 (antibody, human IgG1, kappa)
heavy 1: not shown
heavy 2: not shown
light: B1 light
notes: heterodimerized antibody, mutation in one H chain only; also called S337_18N He Ab
B48: GpH7-A5/GpH7-B3 variant T335_01G/GpL16-k0 (antibody, human IgG1, kappa)
heavy 1: not shown
heavy 2: not shown
light: B1 light
notes: heterodimerized antibody, mutation in one H chain only; also called T335_01G He Ab
B49: GpH7-A5/GpH7-B3 variant T335_02A/GpL16-k0 (antibody, human IgG1, kappa)
heavy 1: not shown
heavy 2: not shown
light: B1 light
notes: heterodimerized antibody, mutation in one H chain only; also called T335_02A He Ab
B50: GpH7-A5/GpH7-B3 variant T335_13S/GpL16-k0 (antibody, human IgG1, kappa)
heavy 1: not shown
heavy 2: not shown
light: B1 light
notes: heterodimerized antibody, mutation in one H chain only; also called T335_13S He Ab
B51: GpH7-A5/GpH7-B3 variant Y296_02A/GpL16-k0 (antibody, human IgG1, kappa)
heavy 1: not shown
heavy 2: not shown
light: B1 light
notes: heterodimerized antibody, mutation in one H chain only; also called Y296_02A He Ab
B52: GpH7-A5/GpH7-B3 variant Y296_03V/GpL16-k0 (antibody, human IgG1, kappa)
heavy 1: not shown
heavy 2: not shown
light: B1 light
notes: heterodimerized antibody, mutation in one H chain only; also called Y296_03V He Ab
B53: GpH7-A5/GpH7-B3 variant Y296_07I/GpL16-k0 (antibody, human IgG1, kappa)
heavy 1: not shown
heavy 2: not shown
light: B1 light
notes: heterodimerized antibody, mutation in one H chain only; also called Y296_07I He Ab
B54: GpH7-A5/GpH7-B3 variant Y296_08L/GpL16-k0 (antibody, human IgG1, kappa)
heavy 1: not shown
heavy 2: not shown
light: B1 light
notes: heterodimerized antibody, mutation in one H chain only; also called Y296_08L He Ab
B55: GpH7-A5/GpH7-B3 variant Y300_07I/GpL16-k0 (antibody, human IgG1, kappa)
heavy 1: not shown
heavy 2: not shown
light: B1 light
notes: heterodimerized antibody, mutation in one H chain only; also called Y300_07I He Ab
B56: GpH7-A5/GpH7-B3 variant Y300_16H/GpL16-k0 (antibody, human IgG1, kappa)
heavy 1: not shown
heavy 2: not shown
light: B1 light
notes: heterodimerized antibody, mutation in one H chain only; also called Y300_16H He Ab

Each binder was assayed against T1, FcγRIIIa extracellular domain with C-terminal His tag (human, UniProt P08637 17-208) (assay: SPR relative binding; GpH7-B3/GpL16-k0 = 100).
T1 construct: extracellular domain; also called FcgRIIIa; 3a; not shown: His tag at the C terminus
T1 sequence (P08637 17-208): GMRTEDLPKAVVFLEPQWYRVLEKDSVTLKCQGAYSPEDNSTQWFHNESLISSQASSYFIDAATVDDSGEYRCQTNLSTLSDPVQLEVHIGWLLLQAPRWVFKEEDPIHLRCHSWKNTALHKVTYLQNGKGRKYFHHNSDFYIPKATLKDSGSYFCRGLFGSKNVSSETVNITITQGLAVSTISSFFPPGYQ
Procedure: Analysis of interaction between objective antibody and the FcγR was carried out using Biacore T100 (GE Healthcare). HBS-EP+ (GE Healthcare) was used as the running buffer, and the measurement temperature was set to 25° C. Chips produced by immobilizing the antigen peptide by the amine coupling method to a Series S Sencor Chip CM5 (GE Healthcare), or alternatively, chips produced by allowing preliminarily biotinylated antigen peptides to interact with and immobilize onto a Series S Sensor Chip SA (certified) (GE Healthcare) were used. Antibodies of interest were captured onto an antigen peptide-immobilized chip, and allowed to interact to each FcγR diluted with running buffer. To regenerate and repeatedly use the chip, the antibodies captured on the chip were washed off by reacting 10 mM glycine-HCl, pH 1.5.
The FcγR-binding activity of each antibody was assessed primarily using as an indicator the FcγR-binding activity and dissociation constant for FcγR.

Binder | Ho/Con_3a
B1 | 95.6 % of control
B2 | 56.6 % of control
B3 | 93 % of control
B4 | 93.3 % of control
B5 | 86.5 % of control
B6 | 87.1 % of control
B7 | 109 % of control
B8 | 95.1 % of control
B9 | 90.9 % of control
B10 | 41.6 % of control
B11 | 118 % of control
B12 | 90.3 % of control
B13 | 104 % of control
B14 | 95.4 % of control
B15 | 104 % of control
B16 | 110 % of control
B17 | 107 % of control

Binder | Ho/Con_3a
B18 | 95.8 % of control
B19 | 101 % of control
B20 | 134 % of control
B21 | 114 % of control
B22 | 104 % of control
B23 | 150 % of control
B24 | 49.9 % of control
B25 | 98.2 % of control
B26 | 37.1 % of control
B27 | -0.1 % of control
B28 | 0.8 % of control
B29 | 88 % of control
B30 | 108 % of control
B31 | 145 % of control
B32 | 160 % of control
B33 | 107 % of control
B34 | 99.8 % of control

Each binder was assayed against T2, FcγRIa extracellular domain with C-terminal His tag (human, UniProt P12314 16-292) (assay: SPR (Biacore), relative FcγRIa binding, GpH7-A5/GpH7-B3/GpL16-k0 (HeCon Ab) = 100).
T2 construct: extracellular domain; soluble analyte in Biacore; also called FcgRI; CD64
T2 sequence (P12314 16-292): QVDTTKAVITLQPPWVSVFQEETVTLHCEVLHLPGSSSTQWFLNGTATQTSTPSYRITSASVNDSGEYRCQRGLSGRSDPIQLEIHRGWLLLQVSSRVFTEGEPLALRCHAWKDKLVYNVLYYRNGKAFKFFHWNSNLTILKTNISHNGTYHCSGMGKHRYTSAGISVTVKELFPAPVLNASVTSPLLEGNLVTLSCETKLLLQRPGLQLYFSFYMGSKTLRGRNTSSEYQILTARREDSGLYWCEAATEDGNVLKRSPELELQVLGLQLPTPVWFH

Binder | He/Con_1a
B35 | 105 % of control
B36 | 106 % of control
B37 | 106 % of control
B38 | 102 % of control
B39 | 102 % of control
B40 | 102 % of control
B41 | 106 % of control
B42 | 104 % of control
B43 | 105 % of control
B44 | 104 % of control
B45 | 105 % of control
B46 | 105 % of control
B47 | 105 % of control
B48 | 104 % of control
B49 | 103 % of control
B50 | 105 % of control
B51 | 103 % of control
B52 | 104 % of control
B53 | 104 % of control
B54 | 104 % of control
B55 | 108 % of control
B56 | 111 % of control
